Measured values as given in patent publication US20190284258A1, “HAEMADIPSA SYLVESTRIS ANTITHROMBOTIC PEPTIDE SYLVESTIN AND USE THEREOF” (priority 2016, published 2019).

Target: FXIIa
Assay: enzyme inhibition kinetics, chromogenic substrate, OD 405 nm

Sequence of FXIIa (P00748 20-372, chain 1 of 2): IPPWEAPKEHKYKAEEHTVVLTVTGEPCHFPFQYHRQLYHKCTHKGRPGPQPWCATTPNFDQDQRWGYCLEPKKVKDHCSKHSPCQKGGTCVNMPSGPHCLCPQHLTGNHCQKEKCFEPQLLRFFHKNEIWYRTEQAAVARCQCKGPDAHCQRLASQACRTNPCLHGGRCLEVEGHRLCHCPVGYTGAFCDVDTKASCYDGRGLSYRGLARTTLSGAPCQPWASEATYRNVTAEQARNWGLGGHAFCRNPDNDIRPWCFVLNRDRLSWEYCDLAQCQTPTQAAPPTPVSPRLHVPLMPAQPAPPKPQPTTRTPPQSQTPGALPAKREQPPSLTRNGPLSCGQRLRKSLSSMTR
Sequence of FXIIa (P00748 373-615, chain 2 of 2): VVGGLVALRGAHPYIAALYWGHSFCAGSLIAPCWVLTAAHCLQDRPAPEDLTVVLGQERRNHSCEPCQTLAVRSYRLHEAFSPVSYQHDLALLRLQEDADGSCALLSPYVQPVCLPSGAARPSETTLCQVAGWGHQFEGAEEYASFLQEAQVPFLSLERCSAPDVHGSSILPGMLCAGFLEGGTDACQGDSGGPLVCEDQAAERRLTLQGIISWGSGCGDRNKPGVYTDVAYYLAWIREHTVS

- Ki: 2.9 µM
Substance: Haemadipsa sylvestris antithrombotic peptide Sylvestin
